From patent US5670637

Tests used:
[1] = target: HIV-1 reverse transcriptase p66/p51 heterodimer (Human immunodeficiency virus 1) (UniProt P04585+P04585); test: filter; conditions: half-maximal binding; 200 mM KOAc, 50 mM Tris-HCl pH 7.7, 10 mM DTT
[2] = target: human tissue plasminogen activator (htPA) (Homo sapiens) (UniProt P00750); test: filter; conditions: 150 mM NaAc, 50 mM Tris-acetate pH 7.5
[3] = target: T1, T4 DNA polymerase (gp43) (Bacteriophage T4) (UniProt P04415); test: FP; conditions: filter binding; 200 mM KOAc, 50 mM Tris-HCl pH 7.7, 37 C
T1 sequence: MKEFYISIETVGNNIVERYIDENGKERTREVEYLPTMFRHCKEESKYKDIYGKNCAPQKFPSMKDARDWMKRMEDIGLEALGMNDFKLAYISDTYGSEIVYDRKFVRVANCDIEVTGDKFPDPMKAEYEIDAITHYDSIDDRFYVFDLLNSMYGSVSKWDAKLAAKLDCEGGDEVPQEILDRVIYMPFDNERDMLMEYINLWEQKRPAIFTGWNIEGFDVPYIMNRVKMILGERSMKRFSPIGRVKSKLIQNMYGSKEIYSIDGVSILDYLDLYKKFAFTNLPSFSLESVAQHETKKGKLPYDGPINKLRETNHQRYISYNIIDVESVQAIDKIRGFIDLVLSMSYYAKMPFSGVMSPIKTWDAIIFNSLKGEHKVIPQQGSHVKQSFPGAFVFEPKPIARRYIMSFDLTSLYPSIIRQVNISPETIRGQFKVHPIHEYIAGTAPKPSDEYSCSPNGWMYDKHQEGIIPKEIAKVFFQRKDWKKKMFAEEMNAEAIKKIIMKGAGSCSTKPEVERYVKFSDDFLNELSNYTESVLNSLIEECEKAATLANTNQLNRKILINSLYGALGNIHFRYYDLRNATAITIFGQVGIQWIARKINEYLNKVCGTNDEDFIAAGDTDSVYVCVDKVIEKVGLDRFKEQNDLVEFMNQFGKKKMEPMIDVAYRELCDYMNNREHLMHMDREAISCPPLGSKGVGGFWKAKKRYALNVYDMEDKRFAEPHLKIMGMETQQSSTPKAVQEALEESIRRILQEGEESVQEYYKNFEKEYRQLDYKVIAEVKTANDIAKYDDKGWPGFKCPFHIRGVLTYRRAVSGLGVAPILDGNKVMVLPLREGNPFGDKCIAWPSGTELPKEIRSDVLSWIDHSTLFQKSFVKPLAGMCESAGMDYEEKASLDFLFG

[4] = target: T1, T4 DNA polymerase (gp43) (Bacteriophage T4); test: filter; conditions: random loop population, 50-fold lower affinity

human tissue plasminogen activator (htPA) (Homo sapiens), sequence (P00750 36-562): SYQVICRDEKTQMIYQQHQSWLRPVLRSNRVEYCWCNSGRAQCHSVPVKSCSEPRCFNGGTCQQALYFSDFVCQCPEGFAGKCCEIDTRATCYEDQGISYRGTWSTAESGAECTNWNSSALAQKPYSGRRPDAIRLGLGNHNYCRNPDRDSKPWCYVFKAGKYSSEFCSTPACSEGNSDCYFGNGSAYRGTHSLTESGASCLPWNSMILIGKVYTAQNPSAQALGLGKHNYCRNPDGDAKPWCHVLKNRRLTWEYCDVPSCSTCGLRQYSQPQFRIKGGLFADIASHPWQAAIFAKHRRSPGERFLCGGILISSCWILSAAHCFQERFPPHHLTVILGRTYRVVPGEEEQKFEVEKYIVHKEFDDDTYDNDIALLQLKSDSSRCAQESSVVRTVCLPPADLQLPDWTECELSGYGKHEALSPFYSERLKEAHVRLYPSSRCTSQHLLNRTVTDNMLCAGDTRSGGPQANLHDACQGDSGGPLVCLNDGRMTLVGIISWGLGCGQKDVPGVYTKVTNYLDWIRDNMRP

GGGAGCAUCAGACUUUUAAUCUGACAAUCAAGNNNNNNNNNNNNNNNNNNNNNNNNNNNNNNNNAUCUAUGAAAGAAUUUUAUAUCUCUAUUGAAAC
K half [1]: 700 nM

GGGAGCUCAGAAUAAACGCUCAANNNNNNNNNNNNNNNNNNNNNNNNNNNNNNUUCGACAUGAGGCCCGGAUCCGGC [30N candidate pool]
Kd [2]: 70 nM

AUAUUCCUUAGUUUAUAGCCCNNNNNNNNAGGCUCUUGAUUG [gp43 RNA wild-type loop AAUAACUC]
Kd [3]: 5 nM

AUAUUCCUUAGUUUAUAGCCCNNNNNNNNAGGCUCUUGAUUG [gene 43 operator RNA random 8N loop pool]
Kd [4]: 250 nM
